Molecular target: T1, human α4β1 integrin (human, UniProt P13612 34-1032; P05556 21-798)
T1 construct: whole, on cells; In the ELISA it is on transformed L cells; In the adhesion assays it is on human U937 monocytic cells and human Jurkat T cells; also called VLA-4; alpha-4-beta-1 integrin
Assay: cell ELISA of crude Cos supernatants on L cells expressing α4β1 integrin
Method: Briefly, L cells transformed to express a4β1 integrin on their cell surface were plated out and grown to confluence in 96-well tissue culture plates. The samples to be tested (either crude supernatants or protein-A-purified) were serially diluted and added to each well. After incubation for 1 h on ice and very gentle washing, goat anti-mouse or anti-human (gamma-chain specific) peroxidase conjugates (Sigma) were added. After a further 1 h incubation on ice and very gentle washing, the substrate (o-phenylenediamine dihydrochloride, Sigma) was added. After incubation for 30 min at room temperature, the reaction was stopped by adding 1 M H₂SO₄, and the A₄₉₀ was measured.

B1: reshaped human 21.6 antibody (La+Ha) (antibody, human IgG1, V domains shown)
VH: QVQLVQSGAEVKKPGASVKVSCKASGFNIKDTYIHWVRQAPGQRLEWMGRIDPANGYTKYDPKFQGRVTITADTSASTAYMELSSLRSEDTAVYYCAREGYYGNYGVYAMDYWGQGTLVTVSS
VL: DIQMTQSPSSLSASVGDRVTITCKTSQDINKYMAWYQQTPGKAPRLLIHYTSALQPGIPSRFSGSGSGRDYTFTISSLQPEDIATYYCLQYDNLWTFGQGTKVEIK
notes: Human IgG1 kappa, expressed in Cos cells; not shown: human gamma-1 heavy chain constant region; human kappa light chain constant region
B1: binds.

From patent US20150064177A1 (ELAN PHARMACEUTICALS, published 2015)
